Measurements taken from publication PMC3594540 (Nature structural & molecular biology, 2013).
One block for each binder: values may come before it.

B2: human PLCβ3 (residues 10–1234) (enzyme)
chain: ALQLEPPTVVETLRRGSKFIKWDEETSSRNLVTLRVDPNGFFLYWTGPNMEVDTLDISSIRDTRTGRYARLPKDPKIREVLGFGGPDARLEEKLMTVVSGPDPVNTVFLNFMAVQDDTAKVWSEELFKLAMNILAQNASRNTFLRKAYTKLKLQVNQDGRIPVKNILKMFSADKKRVETALESCGLKFNRSESIRPDEFSLEIFERFLNKLCLRPDIDKILLEIGAKGKPYLTLEQLMDFINQKQRDPRLNEVLYPPLRPSQARLLIEKYEPNQQFLERDQMSMEGFSRYLGGEENGILPLEALDLSTDMTQPLSAYFINSSHNTYLTAGQLAGTSSVEMYRQALLWGCRCVELDVWKGRPPEEEPFITHGFTMTTEVPLRDVLEAIAETAFKTSPYPVILSFENHVDSAKQQAKMAEYCRSIFGDALLIEPLDKYPLAPGVPLPSPQDLMGRILVKNKKRHRPSAGGPDSAGRKRPLEQSNSALSESSAATEPSSPQLGSPSSDSCPGLSNGEEVGLEKPSLEPQKSLGDEGLNRGPYVLGPADREDEEEDEEEEEQTDPKKPTTDEGTASSEVNATEEMSTLVNYIEPVKFKSFEAARKRNKCFEMSSFVETKAMEQLTKSPMEFVEYNKQQLSRIYPKGTRVDSSNYMPQLFWNVGCQLVALNFQTLDVAMQLNAGVFEYNGRSGYLLKPEFMRRPDKSFDPFTEVIVDGIVANALRVKVISGQFLSDRKVGIYVEVDMFGLPVDTRRKYRTRTSQGNSFNPVWDEEPFDFPKVVLPTLASLRIAAFEEGGKFVGHRILPVSAIRSGYHYVCLRNEANQPLCLPALLIYTEASDYIPDDHQDYAEALINPIKHVSLMDQRARQLAALIGESEAQAGQETCQDTQSQQLGSQPSSNPTPSPLDASPRRPPGPTTSPASTSLSSPGQRDDLIASILSEVAPTPLDELRGHKALVKLRSRQERDLRELRKKHQRKAVTLTRRLLDGLAQAQAEGRCRLRPGALGGAADVEDTKEGEDEAKRYQEFQNRQVQSLLELREAQVDAEAQRRLEHLRQALQRLREVVLDANTTQFKRLKEMNEREKKELQKILDRKRHNSISEAKMRDKHKKEAELTEINRRHITESVNSIRRLEEAQKQRHDRLVAGQQQVLQQLAEEEPKLLAQLAQECQEQRARLPQEIRRSLLGEMPEGLGDGPLVACASNGHAPGSSGHLSGADSESQEENTQL

Assays:
[1] = molecular target: B2; experiment: cell-based or functional assay
[2] = molecular target: T1, murine Gαq (residues 7–359), biotinylated for bead binding (murine, UniProt P21279 7-359); experiment: flow cytometry protein interaction assay
T1 sequence: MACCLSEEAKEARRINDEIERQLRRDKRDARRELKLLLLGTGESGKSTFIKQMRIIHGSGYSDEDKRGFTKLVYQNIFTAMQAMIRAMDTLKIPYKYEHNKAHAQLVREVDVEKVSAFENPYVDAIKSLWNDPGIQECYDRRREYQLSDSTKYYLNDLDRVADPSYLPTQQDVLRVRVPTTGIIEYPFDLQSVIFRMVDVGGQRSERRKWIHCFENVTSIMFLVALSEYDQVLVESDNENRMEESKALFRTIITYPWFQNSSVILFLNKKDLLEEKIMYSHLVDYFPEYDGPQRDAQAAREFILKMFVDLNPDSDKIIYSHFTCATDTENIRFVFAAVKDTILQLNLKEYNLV

[3] = molecular target: B2; experiment: crystal structure

- EC50 of Gαq-stimulated PIP2 hydrolysis ([3H]-IP3 release from liposomes) [1]: 39 nM
- Max specific activity of Gαq-stimulated PIP2 hydrolysis (liposomes) [1]: 1600 nmol IP3/min/nmol PLCβ3
B1: Gαq-ΔN (domain or fragment)
chain: RRELKLLLLGTGESGKSTFIKQMRIIHGSGYSDEDKRGFTKLVYQNIFTAMQAMIRAMDTLKIPYKYEHNKAHAQLVREVDVEKVSAFENPYVDAIKSLWNDPGIQECYDRRREYQLSDSTKYYLNDLDRVADPSYLPTQQDVLRVRVPTTGIIEYPFDLQSVIFRMVDVGGQRSERRKWIHCFENVTSIMFLVALSEYDQVLVESDNENRMEESKALFRTIITYPWFQNSSVILFLNKKDLLEEKIMYSHLVDYFPEYDGPQRDAQAAREFILKMFVDLNPDSDKIIYSHFTCATDTENIRFVFAAVKDTILQLNLKEYNLV
modifications: biotinylated (b-Gαq, in the FCPIA)

Binder: B2
- Ki [2]: 220 nM

- binding result [3]: binds
B3: TEV-cleaved murine Gαq (residues 7–359) (natural protein)
chain: MACCLSEEAKEARRINDEIERQLRRDKRDARRELKLLLLGTGESGKSTFIKQMRIIHGSGYSDEDKRGFTKLVYQNIFTAMQAMIRAMDTLKIPYKYEHNKAHAQLVREVDVEKVSAFENPYVDAIKSLWNDPGIQECYDRRREYQLSDSTKYYLNDLDRVADPSYLPTQQDVLRVRVPTTGIIEYPFDLQSVIFRMVDVGGQRSERRKWIHCFENVTSIMFLVALSEYDQVLVESDNENRMEESKALFRTIITYPWFQNSSVILFLNKKDLLEEKIMYSHLVDYFPEYDGPQRDAQAAREFILKMFVDLNPDSDKIIYSHFTCATDTENIRFVFAAVKDTILQLNLKEYNLV
modifications: at least a fraction of the purified Gαq was palmitoylated (Cys9 and Cys10)
